In patent publication US20120134993A1 (ZymoGenetics, published 2012):
Where a chain is given by its changes, count along the chain named. Numbers in names are those of the source.

T1: recombinant human FGF-8b (human, UniProt P55075-3 23-215)
T1 sequence (looked up): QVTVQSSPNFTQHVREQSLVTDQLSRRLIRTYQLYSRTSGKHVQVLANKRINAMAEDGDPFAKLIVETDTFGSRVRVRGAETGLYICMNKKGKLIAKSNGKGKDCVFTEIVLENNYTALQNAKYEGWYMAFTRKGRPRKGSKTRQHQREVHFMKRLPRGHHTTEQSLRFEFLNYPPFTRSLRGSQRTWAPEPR

T2: recombinant human FGF6 (human, UniProt P10767 83-208, limits assumed)
T2 sequence (looked up): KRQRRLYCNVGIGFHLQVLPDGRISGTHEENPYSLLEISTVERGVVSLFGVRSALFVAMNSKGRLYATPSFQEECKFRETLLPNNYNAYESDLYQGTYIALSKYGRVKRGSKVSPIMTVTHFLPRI

T3: recombinant human FGF4 (human, UniProt P08620 31-206, limits assumed)
T3 sequence (looked up): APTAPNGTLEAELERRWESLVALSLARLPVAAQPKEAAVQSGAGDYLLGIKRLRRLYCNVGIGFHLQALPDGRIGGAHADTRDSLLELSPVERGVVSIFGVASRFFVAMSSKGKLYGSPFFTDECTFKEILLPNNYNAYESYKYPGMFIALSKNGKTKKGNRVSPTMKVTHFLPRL

T4: recombinant human FGF-17 (human, UniProt O60258 23-216)
T4 sequence (looked up): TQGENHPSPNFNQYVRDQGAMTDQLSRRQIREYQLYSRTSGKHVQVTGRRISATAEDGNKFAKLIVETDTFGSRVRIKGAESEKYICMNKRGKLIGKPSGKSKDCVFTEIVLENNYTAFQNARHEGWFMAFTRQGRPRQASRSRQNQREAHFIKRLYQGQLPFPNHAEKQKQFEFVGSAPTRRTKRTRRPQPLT

B1: FGFR3IIIc(143-375) Fc5, truncated FGFR3-Fc (A2518F) (Fc fusion)
chain: DTGVDTGAPYWTRPERMDKKLLAVPAANTVRFRCPAAGNPTPSISWLKNGREFRGEHRIGGIKLRHQQWSLVMESVVPSDRGNYTCVVENKFGSIRQTYTLDVLERSPHRPILQAGLPANQTAVLGSDVEFHCKVYSDAQPHIQWLKHVEVNGSKVGPDGTPYVTVLKTAGANTTDKELEVLSLHNVTFEDAGEYTCLAGNSIGFSHHSAWLVVLPAEEELVEADEAGSVYAGEPKSSDKTHTCPPCPAPEAEGAPSVFLFPPKPKDTLMISRTPEVTCVVVDVSHEDPEVKFNWYVDGVEVHNAKTKPREEQYNSTYRVVSVLTVLHQDWLNGKEYKCKVSNKALPSSIEKTISKAKGQPREPQVYTLPPSRDELTKNQVSLTCLVKGFYPSDIAVEWESNGQPENNYKTTPPVLDSDGSFFLYSKLTVDKSRWQQGNVFSCSVMHEALHNHYTQKSLSLSPGK
notes: This is the form with the second and third Ig-like domains; also called FGFR3 A2518F; FGFR3IIIc(143_375) C(Fc5)
B2: FGFR3IIIc(143-375)(P250R) Fc5, truncated FGFR3-Fc P250R (A2519F) (Fc fusion)
chain: B1 chain with P108R
notes: also called FGFR3 A2519F; FGFR3IIIc(143_375) (P250R) C(Fc5)
B3: FGFR3IIIc(143-375)(S249W) Fc5, truncated FGFR3-Fc S249W (A2258F) (Fc fusion)
chain: B1 chain with S107W
notes: also called FGFR3 A2258F; FGFR3A2258F
B4: FGFR3IIIc(23-375) Fc5, full-length FGFR3-Fc (A2257F) (Fc fusion)
chain: ESLGTEQRVVGRAAEVPGPEPGQQEQLVFGSGDAVELSCPPPGGGPMGPTVWVKDGTGLVPSERVLVGPQRLQVLNASHEDSGAYSCRQRLTQRVLCHFSVRVTDAPSSGDDEDGEDEAEDTGVDTGAPYWTRPERMDKKLLAVPAANTVRFRCPAAGNPTPSISWLKNGREFRGEHRIGGIKLRHQQWSLVMESVVPSDRGNYTCVVENKFGSIRQTYTLDVLERSPHRPILQAGLPANQTAVLGSDVEFHCKVYSDAQPHIQWLKHVEVNGSKVGPDGTPYVTVLKTAGANTTDKELEVLSLHNVTFEDAGEYTCLAGNSIGFSHHSAWLVVLPAEEELVEADEAGSVYAGEPKSSDKTHTCPPCPAPEAEGAPSVFLFPPKPKDTLMISRTPEVTCVVVDVSHEDPEVKFNWYVDGVEVHNAKTKPREEQYNSTYRVVSVLTVLHQDWLNGKEYKCKVSNKALPSSIEKTISKAKGQPREPQVYTLPPSRDELTKNQVSLTCLVKGFYPSDIAVEWESNGQPENNYKTTPPVLDSDGSFFLYSKLTVDKSRWQQGNVFSCSVMHEALHNHYTQKSLSLSPGK
notes: also called FGFR3 A2257F; FGFR3IIIc(23_375) C(Fc5)
B5: FGFR3IIIc(23-375)(P250R) Fc5, full-length FGFR3-Fc P250R (A2259F) (Fc fusion)
chain: B4 chain with P228R
notes: also called FGFR3 A2259F; FGFR3IIIc(23_375) (P250R) C(Fc5)
B6: FGFR2alphaIIIc(145-377)(S252W) Fc5, truncated FGFR2-Fc S252W (A2560F) (Fc fusion)
chain: SENSNNKRAPYWTNTEKMEKRLHAVPAANTVKFRCPAGGNPMPTMRWLKNGKEFKQEHRIGGYKVRNQHWSLIMESVVPSDKGNYTCVVENEYGSINHTYHLDVVERWPHRPILQAGLPANASTVVGGDVEFVCKVYSDAQPHIQWIKHVEKNGSKYGPDGLPYLKVLKAAGVNTTDKEIEVLYIRNVTFEDAGEYTCLAGNSIGISFHSAWLTVLPAPGREKEITASPDYLEEPKSSDKTHTCPPCPAPEAEGAPSVFLFPPKPKDTLMISRTPEVTCVVVDVSHEDPEVKFNWYVDGVEVHNAKTKPREEQYNSTYRVVSVLTVLHQDWLNGKEYKCKVSNKALPSSIEKTISKAKGQPREPQVYTLPPSRDELTKNQVSLTCLVKGFYPSDIAVEWESNGQPENNYKTTPPVLDSDGSFFLYSKLTVDKSRWQQGNVFSCSVMHEALHNHYTQKSLSLSPGK
notes: also called FGFR2 A2560F; construct #1949

target: T1, recombinant human FGF-8b; test: direct binding ELISA, FGF-8b coated, FGFR-Fc titrated with heparin, anti-human Fc-HRP
Procedure: (§1) To determine the binding capability of FGFR-Fc to their respective ligands, an ELISA was run. Recombinant human FGF-8b or FGF-17 (R&D Systems) was plated at 100 nM on a Nunc Maxisorp 96-well plate for 1 h at room temperature with shaking. The plates were blocked with BLOTTO (Thermo Fisher Scientific, Rockford, Ill.) for 1 h at room temperature, then washed 5 times with ELISA C buffer (137 mM NaCl, 2.7 mM KCl, 7.2 mM Na₂HPO₄, 1.5 mM KH₂PO₄, 0.05% (v/w) polysorbate 20, pH 7.2). FGFR-Fcs were diluted to 100 nM with PBS/0.1×BLOTTO/10 ug/ml porcine heparin (Sigma, St. Louis, Mo.) and then 1:2 serial dilutions were made, ending at 0.10 nM. 100 μL of FGFR-Fcs were plated and incubated at 4° C. overnight. The following day, the plates were washed 5 times with ELISA C and then incubated with 2.5 μg/mL horseradish peroxidase-conjugated anti-human Fc antibody (Jackson ImmunoResearch Laboratories, West Grove, Pa.) for 1 h at room temperature with shaking. After 5 washes with ELISA C, 100 μL of OPD in citrate buffer (5 mg of o-phenylenediamine in 63 mM sodium citrate, 37 mM citric acid, pH 5.0, 0.03% H₂O₂) was added for detection. After 2-5 minutes, the reaction was stopped with 1 N H₂SO₄. The plates were read at 490 nm using SoftMaxPro software.

Compared with B1, B2 is 1.7-fold lower in IC50: 16.4 nM for the first, 9.7 nM for the second. The second is the more potent here.

Compared with B3, B4 is 4.2-fold higher in IC50: 10 nM for the first, 41.9 nM for the second.

Work on B5 yielded an IC50 of 52.6 nM.

target: T2, recombinant human FGF6; test: cell-based or functional assay

With B3 the “IC50, FGF-stimulated HUVEC proliferation (3H-thymidine)” value was 0.78 nM.

target: recombinant human FGF2 (human, UniProt P09038 143-288, limits assumed); test: cell-based or functional assay
Sequence (P09038 143-288 limits assumed): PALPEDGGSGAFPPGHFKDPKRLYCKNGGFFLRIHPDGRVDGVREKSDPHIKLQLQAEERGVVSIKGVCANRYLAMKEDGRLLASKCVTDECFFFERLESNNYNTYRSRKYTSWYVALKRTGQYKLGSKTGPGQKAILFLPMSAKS

B3 was tested, and the “IC50, FGF-stimulated HUVEC proliferation (3H-thymidine)” value was 0.67 nM.

target: recombinant human FGF1 (human, UniProt P05230 16-155); test: cell-based or functional assay
Sequence (P05230 16-155 limits assumed): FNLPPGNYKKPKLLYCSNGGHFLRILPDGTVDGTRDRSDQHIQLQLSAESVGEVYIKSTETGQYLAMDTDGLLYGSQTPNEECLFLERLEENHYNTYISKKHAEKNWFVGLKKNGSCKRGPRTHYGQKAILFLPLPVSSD

In the case of B3, the “IC50, FGF-stimulated HUVEC proliferation (3H-thymidine)” value is reported as 0.55 nM.

target: T3, recombinant human FGF4; test: cell-based or functional assay

In the case of B3, the “IC50, FGF-stimulated HUVEC proliferation (3H-thymidine)” value is reported as 0.68 nM.

target: human FGF-9 (human, UniProt P31371 4-208); test: cell-based or functional assay

B1 and B2 are within 1.5-fold of each other in “Proliferation IC50, FGF-9-stimulated HCO osteoblasts (3H-thymidine)” value: 0.77 nM for the first, 0.99 nM for the second.

First: B3
Second: B4
The “Proliferation IC50, FGF-9-stimulated HCO osteoblasts (3H-thymidine)” value of the first is 1.6-fold lower: 0.75 nM for the first, 1.19 nM for the second.

For B5, the “Proliferation IC50, FGF-9-stimulated HCO osteoblasts (3H-thymidine)” value was 1.14 nM.

target: T1, recombinant human FGF-8b; test: cell-based or functional assay

First: B2
Second: B3
The “Proliferation IC50, FGF8b-stimulated LNCap cells (3H-thymidine)” value of the first is 2-fold lower: 0.01 nM for the first, 0.02 nM for the second.

target: T2, recombinant human FGF6; test: SPR (Biacore T100), FGFR-Fc captured on protein A, FGF6 analyte with heparin, bivalent analyte model (kd1)
Procedure: (§2) Materials and Methods: Binding kinetics and affinity studies were performed on a Biacore T100™ system (GE Healthcare, Piscataway, N.J.). Methods for the Biacore T100™ were programmed using Biacore T100™ Control Software, v 2.0. Since each of the FGF receptor molecules contained a human Fc domain, biotinylated protein-A (Thermo Fisher Scientific Inc, Rockford, Ill.) was used as a capture reagent for these studies. Biotinylated protein-A was diluted to concentration of 50 μg/mL in HBS-EP buffer (10 mM HEPES, 150 mM NaCl, 3 mM EDTA, 0.05% Surfactant P20; GE Healthcare, Piscataway, N.J.), and then captured to all four flow cells of a SA (streptavidin) sensor chip. A density of approximately 1100 RU was obtained for each flow cell. Each FGF receptor molecule was subsequently captured via protein-A onto a separate flow cell of the SA chip at an approximate density of 150-250 RU. The Biacore instrument measures the mass of protein bound to the sensor chip surface, and thus, capture of the receptor was verified for each cycle.
(§3) For kinetic binding studies, serial 1:5 dilutions of FGF ligands were prepared from 200 nM-0.06 nM. These samples were injected over the surface and allowed to specifically bind to the FGF receptor captured on the sensor chip. Injections of each ligand concentration were performed with an association time of 7 minutes and dissociation time of 15 minutes. Kinetic binding studies were performed with a flow rate of 50 μL/min. All binding experiments were performed at 25° C. in HBS-P buffer (10 mM HEPES, 150 mM NaCl, 0.05% Surfactant P20, pH 7.4; GE Healthcare, Piscataway, N.J.), containing 50 μg/mL heparin (Calbiochem, La Jolla, Calif.).
(§4) Between cycles, the flow cell was washed with 20 mM hydrochloric acid to regenerate the surface. This wash step removed both the captured FGF receptor and any bound FGF ligand from the protein-A surface, and allowed for the subsequent binding of the next test sample. Data was compiled using the Biacore T100™ Evaluation software (version 2.0). Data was processed by subtracting reference flow cell and blank injections. Baseline stability was assessed to ensure that the regeneration step provided a consistent binding surface throughout the sequence of injections. Duplicate injection curves were checked for reproducibility. Binding curves were globally fit to the bivalent analyte model.

First: B1
Second: B2
The koff of the first is 15-fold higher: 0.06 s⁻¹ for the first, 0.004 s⁻¹ for the second.

First: B3
Second: B4
The koff of the first is 100-fold lower: 0.0006 s⁻¹ for the first, 0.06 s⁻¹ for the second.

Binder B5 has a koff of 0.005 s⁻¹.

target: T4, recombinant human FGF-17; test: direct binding ELISA, FGF-17 coated, FGFR-Fc titrated with heparin, anti-human Fc-HRP
Procedure: as §1

Going from B1 to B2, the IC50 rises from 3.79 nM to 37.6 nM (9.9-fold).

Compared with B3, B4 is 15-fold higher in IC50: 1.31 nM for the first, 20.1 nM for the second. The first is the more potent here.

First: B5
Second: B6
The IC50 of the first is 4.9-fold lower: 45.3 nM for the first, 223 nM for the second.

target: T2, recombinant human FGF6; test: SPR (Biacore T100), FGFR-Fc captured on protein A, FGF6 analyte with heparin, bivalent analyte model (KA1)
Procedure: as §2, §3, §4

Compared with B1, B2 is 17-fold higher in Ka: 3e+06 M⁻¹ for the first, 5e+07 M⁻¹ for the second.

Compared with B3, B4 is 71-fold lower in Ka: 5e+08 M⁻¹ for the first, 7e+06 M⁻¹ for the second.

B5 was tested, and the Ka was 6e+07 M⁻¹.

target: T2, recombinant human FGF6; test: SPR (Biacore T100), FGFR-Fc captured on protein A, FGF6 analyte with heparin, bivalent analyte model (ka1)
Procedure: as §2, §3, §4

B1 and B2 are the same in kon: 200000 M⁻¹ s⁻¹ for the first, 200000 M⁻¹ s⁻¹ for the second.

B3 and B4 are within 1.5-fold of each other in kon: 300000 M⁻¹ s⁻¹ for the first, 400000 M⁻¹ s⁻¹ for the second.

Work on B5 yielded a kon of 300000 M⁻¹ s⁻¹.

target: T2, recombinant human FGF6; test: SPR (Biacore T100), FGFR-Fc captured on protein A, FGF6 analyte with heparin, bivalent analyte model (KD1)
Procedure: as §2, §3, §4

Going from B1 to B2, the Kd falls from 300 nM to 20 nM (15-fold). The second binds more tightly here.

Compared with B3, B4 is 100-fold higher in Kd: 2 nM for the first, 200 nM for the second.

B5 was tested, and the Kd was 20 nM.
